The text below walks through data of paper doi:10.1101/2025.10.11.681810.

The target in assay [1] is recombinant bank vole (BV) PrP(90–231), I109 natural polymorph (bank vole) (UniProt Q8VHV5). Kind of assay: NMR diffusion.
Assay [2] has the same target. Description: SEC.

Turning to “recombinant bank vole (BV) PrP(90–231), I109 natural polymorph (from UniProt Q8VHV5 90-231) (domain or fragment)”, the stoichiometry N in assay [1] was 16; in assay [2], 12.
